Measurements reported in paper PMC9886945 (Nature Communications, 2023).

Tests used:
Assay in all cases: cryo-EM structure
[1] = target: T1, Mycobacterium tuberculosis RNA polymerase β subunit (M. tuberculosis, UniProt P9WGY9); settings: both partners purified
T1 sequence: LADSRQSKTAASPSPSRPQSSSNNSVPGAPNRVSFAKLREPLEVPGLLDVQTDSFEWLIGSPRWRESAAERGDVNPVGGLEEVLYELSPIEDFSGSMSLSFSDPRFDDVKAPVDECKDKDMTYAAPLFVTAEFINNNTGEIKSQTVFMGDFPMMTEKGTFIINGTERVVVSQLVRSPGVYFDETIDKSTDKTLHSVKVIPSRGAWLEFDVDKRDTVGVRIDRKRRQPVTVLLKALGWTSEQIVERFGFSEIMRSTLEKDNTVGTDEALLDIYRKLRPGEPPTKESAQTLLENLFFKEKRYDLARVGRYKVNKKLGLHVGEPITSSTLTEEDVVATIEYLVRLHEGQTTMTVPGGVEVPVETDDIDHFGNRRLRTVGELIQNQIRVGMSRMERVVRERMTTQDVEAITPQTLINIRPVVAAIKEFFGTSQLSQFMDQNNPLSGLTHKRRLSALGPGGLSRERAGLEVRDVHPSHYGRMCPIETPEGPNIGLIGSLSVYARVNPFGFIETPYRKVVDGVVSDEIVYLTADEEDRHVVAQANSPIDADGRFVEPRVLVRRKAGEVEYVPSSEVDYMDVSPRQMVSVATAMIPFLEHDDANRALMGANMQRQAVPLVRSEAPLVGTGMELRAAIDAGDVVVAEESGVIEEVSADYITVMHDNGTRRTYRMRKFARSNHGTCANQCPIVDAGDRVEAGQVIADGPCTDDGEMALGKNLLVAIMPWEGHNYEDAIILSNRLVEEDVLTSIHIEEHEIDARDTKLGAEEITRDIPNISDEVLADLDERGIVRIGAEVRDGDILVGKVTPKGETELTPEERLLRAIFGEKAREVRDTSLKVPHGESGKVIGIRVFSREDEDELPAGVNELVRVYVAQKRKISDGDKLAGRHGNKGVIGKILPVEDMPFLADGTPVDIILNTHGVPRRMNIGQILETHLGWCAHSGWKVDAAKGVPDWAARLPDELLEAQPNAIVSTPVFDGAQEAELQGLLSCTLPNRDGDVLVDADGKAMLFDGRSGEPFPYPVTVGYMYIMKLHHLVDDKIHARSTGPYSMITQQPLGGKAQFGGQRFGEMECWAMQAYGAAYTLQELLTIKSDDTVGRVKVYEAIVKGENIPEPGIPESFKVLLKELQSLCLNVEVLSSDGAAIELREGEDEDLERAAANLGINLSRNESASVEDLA

[2] = target: Mycobacterium tuberculosis RNA polymerase β' subunit (M. tuberculosis, UniProt P9WGY7); settings: both partners purified
cryo-EM structure = target: the molecule itself

Measured: binding result

Chain of Mycobacterium tuberculosis RNA polymerase β' subunit (P9WGY7 whole entry): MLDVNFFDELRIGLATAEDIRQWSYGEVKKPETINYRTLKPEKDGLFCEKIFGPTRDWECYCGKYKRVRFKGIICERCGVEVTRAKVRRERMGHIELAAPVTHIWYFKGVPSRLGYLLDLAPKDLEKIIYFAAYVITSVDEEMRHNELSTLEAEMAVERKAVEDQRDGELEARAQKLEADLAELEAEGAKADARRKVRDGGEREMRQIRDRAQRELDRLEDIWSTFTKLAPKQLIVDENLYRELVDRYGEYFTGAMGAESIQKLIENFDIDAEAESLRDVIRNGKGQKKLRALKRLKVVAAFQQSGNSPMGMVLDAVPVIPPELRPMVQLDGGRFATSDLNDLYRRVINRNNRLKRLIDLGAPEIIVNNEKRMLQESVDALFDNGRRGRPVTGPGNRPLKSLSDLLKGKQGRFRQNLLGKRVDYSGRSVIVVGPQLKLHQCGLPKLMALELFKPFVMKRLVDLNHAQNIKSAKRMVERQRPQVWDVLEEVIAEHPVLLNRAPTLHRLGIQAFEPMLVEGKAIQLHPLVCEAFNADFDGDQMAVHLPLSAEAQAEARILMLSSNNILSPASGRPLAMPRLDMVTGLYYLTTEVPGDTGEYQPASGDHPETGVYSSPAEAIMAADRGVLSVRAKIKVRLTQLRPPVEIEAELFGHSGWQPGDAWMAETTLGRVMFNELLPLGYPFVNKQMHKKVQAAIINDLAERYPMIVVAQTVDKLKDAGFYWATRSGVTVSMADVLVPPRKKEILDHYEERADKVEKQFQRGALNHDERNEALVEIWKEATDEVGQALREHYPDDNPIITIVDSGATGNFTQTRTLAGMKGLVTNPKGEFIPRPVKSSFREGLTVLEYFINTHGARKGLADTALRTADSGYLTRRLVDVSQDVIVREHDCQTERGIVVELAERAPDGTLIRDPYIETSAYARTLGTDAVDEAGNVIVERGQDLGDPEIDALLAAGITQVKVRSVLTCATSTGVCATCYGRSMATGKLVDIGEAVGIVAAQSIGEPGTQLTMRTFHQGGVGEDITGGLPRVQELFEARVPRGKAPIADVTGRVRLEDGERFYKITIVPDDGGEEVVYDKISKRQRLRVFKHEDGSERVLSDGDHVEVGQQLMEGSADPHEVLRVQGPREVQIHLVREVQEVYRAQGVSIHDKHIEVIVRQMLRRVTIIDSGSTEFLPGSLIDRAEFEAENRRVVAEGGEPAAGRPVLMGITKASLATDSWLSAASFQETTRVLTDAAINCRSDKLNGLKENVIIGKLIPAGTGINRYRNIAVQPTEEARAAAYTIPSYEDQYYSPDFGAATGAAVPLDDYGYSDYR

B1: Mycobacterium tuberculosis σ^B subunit (natural protein)
chain: MADAPTRATTSRVDSDLDAQSPAADLVRVYLNGIGKTALLNAAGEVELAKRIEAGLYAEHLLETRKRLGENRKRDLAAVVRDGEAARRHLLEANLRLVVSLAKRYTGRGMPLLDLIQEGNLGLIRAMEKFDYTKGFKFSTYATWWIRQAITRGMADQSRTIRLPVHLVEQVNKLARIKREMHQHLGREATDEELAAESGIPIDKINDLLEHSRDPVSLDMPVGSEEEAPLGDFIEDAEAMSAENAVIAELLHTDIRSVLATLDEREHQVIRLRFGLDDGQPRTLDQIGKLFGLSRERVRQIERDVMSKLRHGERADRLRSYAS
binds: all assays above
